Test results: article PMC3138754, “α-SNAP Prevents Docking of the Acrosome during Sperm Exocytosis because It Sequesters Monomeric Syntaxin” (PLoS ONE, 2011)

Molecular target: T1, syntaxin1 (1–262), cytosolic domain (UniProt P32851 1-262)
T1 construct: syntaxin1 residues 1-262 (cytosolic domain); pET28a plasmid from D. Fasshauer; rat syntaxin 1A is surmised from the source of the plasmid; also called syntaxin 1–262; cytosolic domain of syntaxin1; source: E. coli BLR(DE3), pET28a plasmid, extracted in 6 M urea, purified on Ni-NTA with renaturing during the washing step
Experiment: co-IP; 0.9 µM syntaxin 1-262 with 1, 2.5 or 5 µM α-SNAP wild type or M105I, NSF and ATP omitted; anti-syntaxin immunoprecipitation, anti-α/β-SNAP blot, densitometry normalised to syntaxin
Settings: both partners purified

- fold amount recovered with syntaxin against the wild type: 2 fold
B1: α-SNAP-M105I (natural protein, UniProt P81125 1-295, looked up)
chain: MDNSGKEAEAMALLAEAERKVKNSQSFFSGLFGGSSKIEEACEIYARAANMFKMAKNWSAAGSAFCQAAHVHLQLQSKHDAATCFVDAGNAFKKADPQEAINCLIRAIEIYTDMGRFTIAAKHHISIAEIYETELVDIEKAIAHYEQSADYYKGEESNSSANKCLLKVAGYAAQLEQYQKAIDIYEQVGTNAMDSPLLKYSAKDYFFKAALCHFCIDMLNAKLAVQKYEELFPAFSDSRECKRIKKLLEAHEEQNVDSYTEAVKEYDSISRLDQWLTTMLLRIKKTIQGDEEDLR
notes: α-SNAP with the point mutation M105I that occurs in hyh mice; pET28 plasmid from P. Hanson; called one of the three full length proteins; also called M105I mutant; the mutant of the hyh mouse; source: E. coli BLR(DE3), pET28 plasmid, purified (Ni-NTA, native conditions)
